Assay in all cases: ELISA
Holding throughout (details): both partners purified
(ELISA stands for enzyme-linked immunosorbent assay.)

The target in experiment [1] is RBD of the Alpha variant (B.1.1.7 lineage) (SARS-CoV-2 Alpha (B.1.1.7), N501Y).
The target of experiment [2] is RBD^B.1 (receptor-binding domain of Spike^B.1) (SARS-CoV-2 B.1 (RBD as Wuhan-Hu-1), UniProt P0DTC2).
Experiment [3] concerns the target RBD of the Delta variant (B.1.617.2 lineage) (SARS-CoV-2 Delta (B.1.617.2), L452R | T478K).
The target of experiment [4] is RBD of the Beta variant (B.1.351 lineage) (SARS-CoV-2 Beta (B.1.351), K417N | E484K | N501Y).
In experiment [5] the target is RBD of the Gamma variant (P.1 lineage) (SARS-CoV-2 Gamma (P.1), K417T | E484K | N501Y).

B1: CSW2-1353 (antibody, V domains shown)
VH: EVQLVESGGGLVQPKGSLKLSCAASGFNFNTYAMNWVRQAPGKGLEWVARIRSKSENYVIYYADSVKDRFTISRDDSQNMLYLQMNNLKTEDTAMYYCVMSYYGNYWFAYWGQGTLVTVSA
VL: DVVVTQTPLSLPVSLGDQASISCRSSQSLVHNNGNTYLHWYLQKPGQSPKLLIYKVSNRFSGVPDRFSGSGSGTDFTLKISRVEAEDLGVYFCSQSTHIPWTFGGGTKLEIK
notes: copies: 2 + 2
On to B1, for which the Kd (usually the constant that tells how readily two partners part at equilibrium) is 0.152 nM in experiment [1], 0.118 nM in experiment [2] and 0.114 nM in experiment [3].

B2: CSW1-1805 (antibody, V domains shown)
VH: EVQLQQSGPELVKPGASLRISCRTSEYTFTENTMYWVKQSHGKSLEWIGGINPNNGDTIYNQQFKGKATLTVDKSSSTAYMELRSLTSEDSAVYYCARDSPVVPGDYWGQGTTLTVSS
VL: DIVMTQSPSSLPVSVGEKVTMRCKSSQSLLYSSNQKNYLAWYQQKSGQSPKLMIYWASTRECGVPDRFTGSGSGTDFTLTISNVKAEDLAVYYCQQYYRYPLTFGVGTKLELK
notes: copies: 2 + 2
For B2, the Kd came out at 0.482 nM in experiment [4]; 0.452 nM in experiment [1]; 0.453 nM in experiment [2]; 0.494 nM in experiment [5]; 0.262 nM in experiment [3].
